Measurements published in patent US8003609B2, “Method for ameliorating pain by modification of NMDA receptors through inhibition of Src” (The Hospital for Sick Children, priority 2004, dated 2011).
Square brackets hold non-standard residues; d marks the D form. Ends that are not written are not given here. pY = N[C@@H](Cc1ccc(OP(=O)(O)O)cc1)C(=O)O

Assays:
NMDAR = experiment: mEPSC whole cell recordings in cultured hippocampal neurons, NMDAR component; type: cell-based, rat
Experimental: (§1) Fetal rat hippocampal neurons were prepared, cultured, and used for electrophysiological recordings 12-17 days after plating. Methods for whole cell recordings are described in Pelkey et al. (Neuron 34:127-138 2002).
(§2) In contrast, in control experiments administering EPQ(pY)EEIPIA (SEQ ID NO:5) increased the NMDAR component of mEPSCs by 172±28% and application of Src40-58 decreased the NMDAR component to 56±4% (FIGS. 5D-F). […] Composite traces are shown in black, the NMDAR component in dark grey, and the AMPAR component in light grey. Scale bars are 50 ms/10 pA. […] NMDA component data were calculated as Q20′/Q2′, and AMPA component data were calculated as A20′/A2′. […] An * indicates a significant difference, Student's t-test, p<0.05. Taking our results together, it is concluded that Src-dependent regulation of the activity of NMDARs depends on expression of ND2 through its anchoring of Src to the NMDAR complex.

AMPA receptor = experiment: mEPSC whole cell recordings in cultured hippocampal neurons, AMPA receptor component; type: cell-based, rat; details: under the recording conditions used
Experimental: as §1, §2

Src unique domain = biological target: T1, Src unique domain (Mus musculus, UniProt P05480); experiment: blot of ND2-GST fusion proteins probed with biotinylated Src unique domain; type: binding; details: GST fusion protein
T1 construct: amino acids 4-82 (the Src unique domain); GST (N); made in house; host or cells: BL21 bacteria
Experimental: (§3) Src, Fyn, and ND2 recombinant proteins were prepared. The cDNAs encoding the SH3 and SH2 domains of mouse n-Src and Fyn were PCR subcloned, ligated in frame into pGEX4T-1 (Amersham Pharmacia Biotech, Baie d'Urfé, Québec), and sequenced. These plasmids, as well as plasmids encoding the unique domains of Src and Fyn in pGEX2T'6, were transformed into BL21 bacteria, and GST fusion proteins were purified by glutathione affinity chromatography. To create the ND2.1, ND2.2, and ND2.3 GST fusion proteins, cDNAs encoding amino acids 239-321 (ND2.1-GST; SEQ ID NO:7), amino acids 189-238 (ND2.2-GST; SEQ ID NO:11), and amino acids 1-188 (ND2.3-GST; SEQ ID NO:13) of human ND2 were PCR subcloned and ligated into pGEX4T-1 (the nucleotide sequence encoding ND2 is SEQ ID NO:8 and the amino acid sequence is SEQ ID NO:9; the nucleotide sequences encoding ND2.1; ND2.2 and ND2.3 are SEQ ID NOS:6, 10 and 12, respectively). Using PCR-based single nucleotide mutagenesis, all cDNAs encoding ND2 fusion proteins were corrected for differences between mitochondrial and nuclear codons to prevent premature translation termination and protein truncation. All constructs were then confirmed by sequencing. The plasmids were transformed into bacteria, and GST fusion proteins were purified by glutathione affinity chromatography.
(§4) Detailed protocols for in vitro binding assays, pull down assays, immunoblotting, and co-immunoprecipitation techniques can be found in Pelkey et al. (Neuron 34:127-138 2002).
As yeast two-hybrid screening may reveal false positive protein-protein interactions, the interaction between Src and ND2 was observed using an independent methodological approach. Direct binding in vitro between ND2 and Src was tested using recombinant proteins. A series of GST fusion proteins comprised of portions of ND2 that spanned the overlapping region found with the yeast two-hybrid screen were made (FIG. 1A). […]

ND2.1-GST = biological target: T2, ND2.1-GST (Homo sapiens, UniProt P03891, A265T); experiment: in vitro binding of biotinylated Src peptides to ND2.1-GST (blot / dot blot); details: biotinylated peptide, streptavidin-HRP detection
T2 construct: made in house; host or cells: bacteria
Experimental: as §3
Src40-58 and scrambled Src peptides were biotinylated by incubating with Sulfo-NHS-Biotin (Pierce Chemical Co., Rockford, Ill.) for 30 minutes at room temperature (SEQ ID NO:4, Src protein). […] Bound probe was then detected on film using an ECL kit.
To detect the binding of ND2.1-GST with Src peptides, the ND2.1-GST fusion protein was purified on glutathione SEPHAROSE. […] Bound probe was then detected on film using an ECL kit (Amersham Pharmacia Biotech, Baie d'Urfé, Québec).
Src40-58, Src40-49, Src49-58, scrambled Src40-58, TAT-Src40-49, and scrambled TAT-Src40-49 peptides were biotinylated by incubating with Sulfo-NHS-Biotin (Pierce Chemical Co., Rockford, Ill.) for 30 minutes at room temperature. […] Bound probe was then detected on film using an ECL kit.

[1] = biological target: T3, association of Src with the NMDAR complexes (Rattus norvegicus, UniProt P11662); experiment: co-immunoprecipitation of Src with NMDARs from PSD proteins; type: binding
T3 construct: from tissue; host or cells: rat brain post-synaptic density fraction
T3 sequence (P11662 whole entry, other chains not shown): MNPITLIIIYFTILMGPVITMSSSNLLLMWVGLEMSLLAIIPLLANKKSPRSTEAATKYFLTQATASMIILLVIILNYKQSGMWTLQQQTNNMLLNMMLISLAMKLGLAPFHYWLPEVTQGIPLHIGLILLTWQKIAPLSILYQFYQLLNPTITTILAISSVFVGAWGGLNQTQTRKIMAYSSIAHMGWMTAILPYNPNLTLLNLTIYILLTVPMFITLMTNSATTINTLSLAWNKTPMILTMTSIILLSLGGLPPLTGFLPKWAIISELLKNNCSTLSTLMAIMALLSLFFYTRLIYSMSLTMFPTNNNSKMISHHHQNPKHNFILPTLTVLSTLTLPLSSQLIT
Experimental: as §4
(§5) Post-synaptic density proteins (Kennedy et al. Proceedings of the National Academy of Science USA 80:7357-7361 1983) were prepared from rat brain as described in detail (Pelkey et al. Neuron 34:127-138 2002). Cellular fractionation of rat brain tissue into nuclear, heavy mitochondrial, light mitochondrial, microsomal, and cytosolic fractions was performed by differential centrifugation of tissue homogenate in 0.25 M sucrose/10 mM HEPES-NaOH, 1 mM EDTA, pH 7.4 with 2 μg each of aprotinin, pepstatin A, and leupeptin (Sigma, St. Louis, Mo.) at 4° C. Nuclei were pelleted by centrifugation at 1 000 g for 10 minutes, the supernatant was removed and spun at 3 000 g for 10 minutes to obtain a heavy mitochondrial pellet. The supernatant was removed and spun at 16 000 g for 15 minutes to obtain a light mitochondrial pellet. The supernatant was removed and spun at 100 000 g for 1 hour to obtain a microsomal pellet and the cytosolic fraction. All pellets were then resuspended in RIPA buffer (50 mM Tris pH 7.6, 150 mM NaCl, 1 mM EDTA, 1% NP-40, 2.5 mg/ml NaDOC, 1 mM Na3VO4 1 mM PMSF, and 2 μg/ml each of protease inhibitors). The light mitochondrial fraction was used in subsequent experiments. […]

[2] = test system: SH2 or SH3 domains of Src; experiment: blot of ND2.1-GST probed with biotinylated SH2 and SH3 domains of Src; type: binding, mouse
Experimental: (§6) Src, Fyn, and ND2 recombinant proteins were prepared. The cDNAs encoding the SH3 and SH2 domains of mouse n-Src and Fyn were PCR subcloned, ligated in frame into pGEX4T-1 (Amersham Pharmacia Biotech, Baie d'Urfé, Québec), and sequenced. These plasmids, as well as plasmids encoding the unique domains of Src and Fyn in pGEX2T'6, were transformed into BL21 bacteria, and GST fusion proteins were purified by glutathione affinity chromatography. To create the ND2.1, ND2.2, and ND2.3 GST fusion proteins, cDNAs encoding amino acids 239-321 (ND2.1-GST; SEQ ID NO:7), amino acids 189-238 (ND2.2-GST; SEQ ID NO:11), and amino acids 1-188 (ND2.3-GST; SEQ ID NO:13) of human ND2 were PCR subcloned and ligated into pGEX4T-1 (the nucleotide sequence encoding ND2 is SEQ ID NO:8 and the amino acid sequence is SEQ ID NO:9; the nucleotide sequences encoding ND2.1; ND2.2 and ND2.3 are SEQ ID NOS:6, 10 and 12, respectively). Using PCR-based single nucleotide mutagenesis, all cDNAs encoding ND2 fusion proteins were corrected for differences between mitochondrial and nuclear codons to prevent premature translation termination and protein truncation. All constructs were then confirmed by sequencing. The plasmids were transformed into bacteria, and GST fusion proteins were purified by glutathione affinity chromatography. […]

Fyn unique domain = biological target: T4, Fyn unique domain (Mus musculus, UniProt P39688); experiment: blot of ND2.1-GST probed with biotinylated Fyn unique domain; type: binding
T4 construct: plasmids encoding the unique domains of Src and Fyn in pGEX2T'6; GST (N); made in house; host or cells: BL21 bacteria
T4 sequence (P39688 1-81 limits assumed): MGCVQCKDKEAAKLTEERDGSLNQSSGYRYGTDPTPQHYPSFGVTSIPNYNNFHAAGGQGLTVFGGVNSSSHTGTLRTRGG
Experimental: as §6

Src [3] = biological target: T5, Src (Rattus norvegicus, UniProt Q9WUD9); experiment: pull down of Src from PSD preparations by ND2-GST fusion proteins; type: binding
T5 construct: from tissue; host or cells: rat brain post-synaptic density fraction
Experimental: as §4, §5

Src [4] = biological target: Src (Homo sapiens, UniProt P12931); experiment: catalytic activity of Src in vitro; type: biochemical; details: not illustrated
Source text: As ND2 alone is not catalytically active (J. E. Walker Quarterly Reviews of Biophysics 25(3):253-324 1992; Sazanov et al. Journal of Molecular Biology 302:455-464 2000; Sazanove et al. Biochemistry 39:7229-7235 2000), its functional role in the NMDAR complex was investigated. […] Thus, it is unlikely that ND2 is a target of Src or a regulator of Src kinase activity.

EPQ(pY)EEIPIA (EPQ[pY]EEIPIA)
NMDAR component of mEPSCs, increased by (NMDAR; control experiments, cultured hippocampal neurons): 172±28%
NMDAR component of the mEPSCs (NMDAR; neurons treated with chloramphenicol for 48 hours): not affected
AMPA receptor component of the mEPSCs (AMPA receptor): neither of these reagents affected

ND2.2-GST: GST fusion protein containing amino acids 189-238 of human ND2 (SEQ ID NO:11) (WMMAVLPYNPNMTILNLTIYIILTTTAFLLLNLNSSTTTLLLSRTWNKLT; also: GST fusion protein)
binding to the unique domain of Src (Src unique domain): did not bind

Src40-49: peptide, 10 amino acid residues, corresponding approximately to amino acid positions 40-49 of the Src unique domain (SEQ ID NO:1) (KPASADGHR; listed as Homo sapiens)
binding to ND2.1-GST (ND2.1-GST): interacts with ND2

Src50-58: Src49-58: peptide comprising amino acid residues 49-58 of SEQ ID NO:4; printed Src50-58 in the summary (PSAAFAPAAA; listed as Homo sapiens)
binding to ND2.1-GST (ND2.1-GST): did not interact

B1: ND2.1-GST: GST fusion protein containing amino acids 239-321 of human ND2 (SEQ ID NO:7) (protein)
chain: WLTPLIPSTLLSLGGLPPLTGFLPKWTIIEEFTKNNSLIIPTIMATITLLNLYFYLRLIYSTSITLLPMSNNVKMKWQFE
modifications: left off: a dimerising Fc or GST
co-immunoprecipitation of Src with NMDARs [1]: suppressed
binding to the unique domain of Src (Src unique domain): bound
binding to the SH2 or SH3 domains of Src [2]: did not bind
interaction in vitro with the Fyn unique domain (Fyn unique domain): did not interact
pulls Src from PSD preparations (Src [3]): pulls Src
catalytic activity of Src in vitro (Src [4]): did not alter

B2: ND2.3-GST: GST fusion protein containing amino acids 1-188 of human ND2 (SEQ ID NO:13) (protein)
chain: MNPLAQPVIYSTIFAGTLITALSSHWFFTWVGLEMNMLAFIPVLTKKMNPRSTEAAIKYFLTQATASMILLMAILFNNMLSGQWTMTNTTNQYSSLMIMMAMAMKLGMAPFHFWVPEVTQGTPLTSGLLLLTWQKLAPISIMYQISPSLNVSLLLTLSILSIMAGSWGGLNQTQLRKILAYSSITHMG
modifications: left off: a dimerising Fc or GST
binding to the unique domain of Src (Src unique domain): did not bind
